Results reported in patent US20230147840A1 (Chugai, published 2023).
Where two headings read alike, the source gives them in different places.

Experiments:
[1] = target: T1, Human CD137 extracellular domain (ECD) (human); assay: SPR Biacore 8K, Ab captured on anti-human Fc, CD137 as analyte, 37 C
T1 construct: also called Human CD137 ECD; recombinant human CD137
Method: (§1) Binding affinity of Dual-Ig antibodies to human CD3 were assessed at 25 degrees C. using Biacore 8K instrument (GE Healthcare). Anti-human Fc (GE Healthcare) was immobilized onto all flow cells of a CM4 sensor chip using amine coupling kit (GE Healthcare). Antibodies were captured onto the anti-Fc sensor surfaces, then recombinant human CD3 or CD137 was injected over the flow cell. All antibodies and analytes were prepared in ACES pH 7.4 containing 20 mM ACES, 150 mM NaCl, 0.05% Tween 20, 0.005% NaN₃. Sensor surface was regenerated each cycle with 3M MgCl₂. […] CD137 binding affinity assay was conducted in same condition except assay temperature was set at 37 degrees C.

[2] = target: T2, Human CD3eg linker (human); assay: SPR Biacore 8K, Ab captured on anti-human Fc, CD3 as analyte, 25 C
T2 construct: Single-chain soluble construct; also called recombinant human CD3
T2 chain: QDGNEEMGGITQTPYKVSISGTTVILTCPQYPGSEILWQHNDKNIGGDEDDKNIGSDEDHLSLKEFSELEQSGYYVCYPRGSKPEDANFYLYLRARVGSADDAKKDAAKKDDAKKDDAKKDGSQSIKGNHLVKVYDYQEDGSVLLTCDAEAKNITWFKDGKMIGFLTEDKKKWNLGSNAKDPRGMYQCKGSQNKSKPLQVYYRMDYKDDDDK
Method: as §1

[3] = target: T1, Human CD137 extracellular domain (ECD); assay: SPR Biacore 8K, 37 C; reference xGPC3/DualAE05-xSG1350kSG1349hV11
Method: as §1
This is caused by faster off rate in FAST-Ig construct. […] This is caused by faster off rate in FAST-Ig construct.

[4] = target: T1, Human CD137 extracellular domain (ECD); assay: SPR Biacore 8K, Ab captured on anti-human Fc, CD137 as analyte, 37 C; remark: listed apart in the source
Method: (§2) Binding affinity of Dual-Fab antibodies (Dual-Ig) to human CD3 were assessed at 25 degrees C. using Biacore 8K instrument (GE Healthcare). Anti-human Fc (GE Healthcare) was immobilized onto all flow cells of a CM4 sensor chip using amine coupling kit (GE Healthcare). Antibodies were captured onto the anti-Fc sensor surfaces, then recombinant human CD3 or CD137 was injected over the flow cell. All antibodies and analytes were prepared in ACES pH 7.4 containing 20 mM ACES, 150 mM NaCl, 0.05% Tween 20, 0.005% NaN₃. Sensor surface was regenerated each cycle with 3M MgCl₂. […] CD137 binding affinity assay was conducted in same condition except assay temperature was set at 37 degrees C.

[5] = target: T2, Human CD3eg linker; assay: SPR Biacore 8K, Ab captured on anti-human Fc, CD3 as analyte, 25 C
Method: as §2

T1 sequence (chain, as listed by the source limits assumed): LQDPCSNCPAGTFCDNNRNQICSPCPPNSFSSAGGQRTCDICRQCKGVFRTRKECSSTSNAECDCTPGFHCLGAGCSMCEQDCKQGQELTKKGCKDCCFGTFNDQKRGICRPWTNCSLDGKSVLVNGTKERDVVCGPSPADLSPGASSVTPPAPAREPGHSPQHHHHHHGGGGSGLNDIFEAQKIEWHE

Kd [1] [nM]	koff [1] [s⁻¹]	kon [1] [M⁻¹ s⁻¹]	Kd [2] [nM]	koff [2] [s⁻¹]	kon [2] [M⁻¹ s⁻¹]	fold weaker binding affinity than CrossMab prepared antibodies [3] [fold]	Kd [4] [nM]	koff [4] [s⁻¹]	kon [4] [M⁻¹ s⁻¹]	Kd [5] [nM]	koff [5] [s⁻¹]	kon [5] [M⁻¹ s⁻¹]	Binder
40.5	0.000525	13000	296	0.0275	92900	–	–	–	–	–	–	–	xGPC3/DualAE05-xSG1350k1349hV11 (bispecific antibody, V domains shown, 1+1 tri-specific, CrossMab format (VH/VL of the GPC3 arm exchanged, charge mutations in CH1/CL of the Dual arm); also called xGPC3/DualAE05-xSG1350kSG1349hV11; AE05 CrossMab) VH 1: QVQLVQSGAEVKKPGASVTVSCKASGYTFTDYEMHWIRQPPGEGLEWIGAIDGPTPDTAYSEKFKGRVTLTADKSTSTAYMELSSLTSEDTAVYYCTRFYSYTYWGQGTLVTVSS VL 1: DIVMTQSPLSLPVTPGEPASISCRSSQPLVHSNRNTYLHWYQQKPGQAPRLLIYKVSNRFSGVPDRFSGSGSGTDFTLKISRVEAEDVGVYYCGQGTQVPYTFGQGTKLEIK VH 2: QVQLVESGGGLVQPGRSLRLSCAASGFKFSNVWFHWVRQAPGKGLEWVAQIKDYYNAYAAYYAPSVKGRFTISRDDSKNSIYLQMNSLKTEDTAVYYCHYVHYASASTLLPAEGVDAWGQGTTVTVSS VL 2: DIVMTQSPLSLPVTPGEPASISCQPSQEVVHMNRNTYLHWYQQKPGQAPRLLIYKVSNRFPGVPDRFSGSGSGTDFTLKISRVEAEDVGVYYCAQGTSHPFTFGQGTKLEIK
79.5	0.00102	12800	314	0.0278	88500	~2	–	–	–	–	–	–	GPC3/DualAE05-SG1363k1364hV11 (bispecific antibody, V domains shown, 1+1 tri-specific, FAST-Ig format) VH 1: QVQLVQSGAEVKKPGASVTVSCKASGYTFTDYEMHWIRQPPGEGLEWIGAIDGPTPDTAYSEKFKGRVTLTADKSTSTAYMELSSLTSEDTAVYYCTRFYSYTYWGQGTLVTVSS VL 1: DIVMTQSPLSLPVTPGEPASISCRSSQPLVHSNRNTYLHWYQQKPGQAPRLLIYKVSNRFSGVPDRFSGSGSGTDFTLKISRVEAEDVGVYYCGQGTQVPYTFGQGTKLEIK VH 2: QVQLVESGGGLVQPGRSLRLSCAASGFKFSNVWFHWVRQAPGKGLEWVAQIKDYYNAYAAYYAPSVKGRFTISRDDSKNSIYLQMNSLKTEDTAVYYCHYVHYASASTLLPAEGVDAWGQGTTVTVSS VL 2: DIVMTQSPLSLPVTPGEPASISCQPSQEVVHMNRNTYLHWYQQKPGQAPRLLIYKVSNRFPGVPDRFSGSGSGTDFTLKISRVEAEDVGVYYCAQGTSHPFTFGQGTKLEIK
–	–	–	–	–	–	–	52.1	0.000722	13900	286	0.028	97700	H1572L0581 (antibody, V domains shown, Dual-Ig with an Fc; also called DualAE26; dBBDu183H1572/dBBDu072L0581) VH: QVQLVESGGGLVQPGRSLRLSCAASGFKFSNVWFHWVRQAPGKGLEWVAQIKDKYNAYAAYYAPSVKGRFTISRDDSKNSIYLQMNSLKTEDTAVYYCHYVHYASASTLLPAEGVDAWGQGTTVTVSS VL: DIVMTQSPLSLPVTPGEPASISCQPSQEVVHMNRNTYLHWYQQKPGQAPRLLIYKVSNRFPGVPDRFSGSGSGTDFTLKISRVEAEDVGVYYCAQGTSHPFTFGQGTKLEIK
54.7	0.000745	13600	282	0.0263	93400	~2	–	–	–	–	–	–	GPC3/DualAE05-SG1364k1363hV11 (bispecific antibody, V domains shown, 1+1 tri-specific, FAST-Ig format; Same variable regions as m28, different constant-region charge mutations; Full chains not tied by name) VH 1: QVQLVQSGAEVKKPGASVTVSCKASGYTFTDYEMHWIRQPPGEGLEWIGAIDGPTPDTAYSEKFKGRVTLTADKSTSTAYMELSSLTSEDTAVYYCTRFYSYTYWGQGTLVTVSS VL 1: DIVMTQSPLSLPVTPGEPASISCRSSQPLVHSNRNTYLHWYQQKPGQAPRLLIYKVSNRFSGVPDRFSGSGSGTDFTLKISRVEAEDVGVYYCGQGTQVPYTFGQGTKLEIK VH 2: QVQLVESGGGLVQPGRSLRLSCAASGFKFSNVWFHWVRQAPGKGLEWVAQIKDYYNAYAAYYAPSVKGRFTISRDDSKNSIYLQMNSLKTEDTAVYYCHYVHYASASTLLPAEGVDAWGQGTTVTVSS VL 2: DIVMTQSPLSLPVTPGEPASISCQPSQEVVHMNRNTYLHWYQQKPGQAPRLLIYKVSNRFPGVPDRFSGSGSGTDFTLKISRVEAEDVGVYYCAQGTSHPFTFGQGTKLEIK
–	–	–	–	–	–	–	275	0.00406	14800	273	0.034	124000	H1579L0581 (antibody, V domains shown, Dual-Ig with an Fc; also called DualAE25; dBBDu183H1579/dBBDu072L0581) VH: QVQLVESGGGLVQPGRSLRLSCAASGFKFSHVWFHWVRQAPGKGLEWVAQIKDKYNAYAAYYAPSVKGRFTISRDDSKNSIYLQMNSLKTEDTAVYYCHYVHYASASTLLPAFGVDAWGQGTTVTVSS VL: DIVMTQSPLSLPVTPGEPASISCQPSQEVVHMNRNTYLHWYQQKPGQAPRLLIYKVSNRFPGVPDRFSGSGSGTDFTLKISRVEAEDVGVYYCAQGTSHPFTFGQGTKLEIK
–	–	–	–	–	–	–	195	0.00269	13800	57	0.00658	116000	H1595L0581 (antibody, V domains shown, Dual-Ig with an Fc; also called DualAE24; dBBDu183H1595/dBBDu072L0581) VH: QVQLVESGGGLVQPGRSLRLSCAASGFKFSNTWMHWVRQAPGKGLEWVAQIKDKYNAYAAYYAPSVKGRFTISRDDSKNSIYLQMNSLKTEDTAVYYCHYIHYASASTLLPAFGVDAWGQGTTVTVSS VL: DIVMTQSPLSLPVTPGEPASISCQPSQEVVHMNRNTYLHWYQQKPGQAPRLLIYKVSNRFPGVPDRFSGSGSGTDFTLKISRVEAEDVGVYYCAQGTSHPFTFGQGTKLEIK
–	–	–	–	–	–	–	–	–	–	110	0.00999	90700	H0883 (antibody, V domains shown, Dual-Ig with an Fc; also called DualAE27; dBBDu183H0883/dBBDu072L) VH: QVQLVESGGGLVQPGRSLRLSCAASGFTFSNAWMHWVRQAPGKGLEWVAQIKDKGNAYAAYYAPSVKGRFTISRDDSKNSIYLQMNSLKTEDTAVYYCRYVHYASASTLLPAFGVDAWGQGTTVTVSS VL: DIVMTQSPLSLPVTPGEPASISCQASQELVHMNRNTYLHWYQQKPGQAPRLLIYKVSNRFPGVPDRFSGSGSGTDFTLKISRVEAEDVGVYYCAQGTSVPFTFGQGTKLEIK
–	–	–	–	–	–	–	70.6	0.00103	14600	158	0.0188	121000	H1573L0581 (antibody, V domains shown, Dual-Ig with an Fc; also called DualAE07; dBBDu183H1573/dBBDu072L0581) VH: QVQLVESGGGLVQPGRSLRLSCAASGFKFSNVWFHWVRQAPGKGLEWVAQIKDYYNAYAAYYAPSVKGRFTISRDDSKNSIYLQMNSLKTEDTAVYYCHYVHYASASTLLPAFGVDAWGQGTTVTVSS VL: DIVMTQSPLSLPVTPGEPASISCQPSQEVVHMNRNTYLHWYQQKPGQAPRLLIYKVSNRFPGVPDRFSGSGSGTDFTLKISRVEAEDVGVYYCAQGTSHPFTFGQGTKLEIK
–	–	–	–	–	–	–	208	0.00311	15000	20.2	0.00192	95000	H0888L0581 (antibody, V domains shown, Dual-Ig with an Fc; also called DualAE02; dBBDu183H0888/dBBDu072L0581) VH: QVQLVESGGGLVQPGRSLRLSCAASGFKFSNVWMHWVRQAPGKGLEWVAQIKDKWNAYAAYYAPSVKGRFTISRDDSKNSIYLQMNSLKTEDTAVYYCHYIHYASASTLLPAFGIDAWGQGTTVTVSS VL: DIVMTQSPLSLPVTPGEPASISCQPSQEVVHMNRNTYLHWYQQKPGQAPRLLIYKVSNRFPGVPDRFSGSGSGTDFTLKISRVEAEDVGVYYCAQGTSHPFTFGQGTKLEIK
–	–	–	–	–	–	–	36.8	0.000444	12100	1450	0.0808	55800	H1644L0939 (antibody, V domains shown, Dual-Ig with an Fc; also called DualAE16; dBBDu183H1644/dBBDu072L0939) VH: QVQLVESGGGLVQPGRSLRLSCAASGFVFSNVWFHWVRQAPGKGLEWVAQIKDYYNAYAAYYAPSVKGRFTISRDDSKNSIYLQMNSLKTEDTAVYYCHYVHYASASTLLPAEGVDAWGQGTTVTVSS VL: DIVMTQSPLSLPVTPGEPASISCQPSQEVVHMNRNTYLHWYQQKPGQAPRLLIYKVSNVFPGVPDRFSGSGSGTDFTLKISRVEAEDVGVYYCAQGTHHPFTFGQGTKLEIK
